B1: TRIM15 (parent)
chain: QSSGKILLCPLCQEEEQAETPMAP
B2: TRAF3IP2 (parent)
chain: PRPPSNPPARGTLKTSNLPEELRK

Variants of: B1
Experiment: protein stability index of a GFP-peptide fusion (GPS, HEK-293T) (PSI 1-6); higher = more stable
Conditions: c terminus: a fixed tail appended
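Also: lentivirally expressed fusions sorted by FACS into six bins by GFP to DsRed ratio, PSI derived from sequencing read proportions per bin multiplied by bin number.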

Protein stability index of substitutions, site by site:
C12: Y 4.54
Q13: A 2.77, C 2.79, D 4.25, E 4.64, F 2.61, G 3.46, H 2.95, I 3.26, K 3.85, L 3.12, M 2.84, N 3.65, P 4.49, R 2.69, S 3.54, T 2.69, V 3.91, W 2.35, Y 3.31
E14: A 2.43, C 2.55, D 3.69, F 1.73, G 3.64, I 2.54, K 3.14, M 2.14, N 3.32, P 3.39, Q 2.55, R 3.3, T 2.46, V 2.75, W 1.73, Y 2.5
E15: A 3.17, C 2.49, D 2.97, F 2, G 2.9, H 2.98, K 3.05, L 2.5, M 2.25, N 2.28, P 2.84, Q 3.54, R 1.81, S 2.75, T 2.77, V 2.35, W 1.65, Y 2.53
E16: C 2.55, D 3.31, F 2.23, G 2.78, I 2.69, K 3.08, L 2.06, M 2.34, N 3.1, P 3.28, Q 1.72, S 2.59, T 2.61, V 2.01, W 2.71, Y 3.08
Q17: A 2.98, C 2.23, D 3.38, E 2.95, F 2.55, G 3.74, H 3.05, I 2.88, K 3.29, M 3.02, N 3.49, P 4.21, R 2.76, S 3.67, T 3.63, V 2.82, Y 2.87
A18: C 3.33, D 3.76, E 3.34, F 2.19, G 2.73, H 3.29, I 3.98, L 3.25, M 3.1, N 3.44, P 4.04, S 3.74, T 3.61, Y 2.89
E19: A 3.12, C 2, F 2.06, G 3.09, I 2.77, K 3.94, M 2.19, N 2.87, P 2.34, Q 2.61, R 2.99, S 2.51, T 3.09, W 1.52, Y 2.96
T20: A 3.65, C 3.54, D 3.66, E 3.92, F 2.84, G 2.49, H 3.46, I 3.5, K 4, L 3.8, N 3.4, P 3.16, Q 3.5, R 3.07, S 3.5, W 2.16, Y 2.89
P21: A 3, C 3.94, D 3.93, E 3.18, F 3.13, G 3.19, H 2.98, I 2.88, K 2.43, L 2.86, M 2.45, N 3.85, Q 3.39, R 1.83, S 3.76, T 3.16, V 3.73, Y 2.68
M22: A 3.99, C 5.56, D 4.14, E 4.34, F 2.86, G 4.22, I 3.45, K 3.16, L 4.28, N 3.52, T 4.48, V 2.28, Y 3.08
A23: C 3.71, D 3.96, E 4.61, F 3.25, G 3.52, H 3.67, I 2.86, K 3.63, L 2.97, M 3.69, N 3.5, Q 3.21, R 2.6, S 3.86, T 3.9, V 4.12, W 2.91, Y 2.94
P24: A 4, C 2.47, D 3.79, E 4.29, F 3.25, G 3.81, H 3.88, I 3.85, K 3.17, L 3.09, M 3.31, Q 3.41, R 1.71, S 3.53, T 3.48, Y 2.68

Variants of: B2
Experiment: as above
Conditions: c terminus: a fixed tail appended

Protein stability index: each site, then its substitutions
P1: A 4.49, C 4.46, D 4.6, E 4.43, F 4.31, G 4.89, H 4.64, I 4.59, K 4.63, L 4.67, M 5.07, N 4.59, Q 4.74, R 4.44, S 4.62, T 4.88, V 4.42, W 4.76, Y 4.46
R2: C 5.19, E 4.85, F 5.09, G 5.12, K 4.56, L 4.2, M 5.08, Q 4.59, S 5.25, V 4.63, W 4.85
P3: A 5.13, C 5.15, D 5.07, E 5.35, F 4.13, G 4.82, H 4.02, I 5.05, K 4.88, L 4.5, M 4.42, N 4.29, Q 4.2, R 4.54, S 4.95, T 4.9, V 4.79, W 4.83, Y 4.7
P4: A 4.79, C 4.84, D 4.7, E 4.52, F 4.25, G 4.54, H 4.5, I 4.66, K 4.91, L 4.58, M 4.39, N 4.7, Q 4.88, R 4.49, S 4.89, T 3.97, V 4.53, W 4.61, Y 4.43
S5: A 4.32, C 4.28, D 3.83, E 4.55, F 4.45, G 4.89, H 4.38, I 4.75, K 4.21, L 4.19, M 5, N 4.63, Q 4.45, R 4.36, T 4.56, V 4.76, W 3.98, Y 3.84
N6: A 5.47, C 5.18, D 4.8, E 5.15, F 5.34, G 4.65, H 5.21, I 4.62, K 4.72, L 5.01, M 5.31, Q 4.78, R 4.49, S 5.01, T 4.69, V 4.79, W 5.83, Y 4.99
P7: A 4.8, C 4.4, D 4.97, E 4.81, F 4.21, G 4.58, H 4.27, I 4.5, K 4.53, L 4.83, M 4.09, N 5.17, Q 4.56, R 4.75, S 4.89, T 4.76, V 4.11, W 4.02, Y 4.05
P8: A 5.06, C 4.48, D 4.99, E 4.81, F 4.43, G 4.82, H 3.56, I 4.72, K 4.99, L 4.69, M 4.76, N 4.82, Q 5.09
